Experimental data: article PMC11958688

Experiments:
Assay in all cases: fluorescence polarisation; FITC-labelled peptide fixed at 4 nM, arrestin titrated (0-50 μM; 0-3.20 μM for C-tail_6P); 20 mM HEPES pH 7.4, 100 mM NaCl, 0.01% DDM; room temperature, 30 min; One Site–Total fit; triplicate
[1] = target: NTSR1 C-tail peptide phosphorylated at Ser401/Ser403/Ser404 (human)
[2] = target: NTSR1 C-tail peptide phosphorylated at Thr407/Ser409/Ser410 (human)
[3] = target: NTSR1 C-tail peptide with hexa-phosphorylation at Ser401/Ser403/Ser404 and Thr407/Ser409/Ser410 (human)

With “human βArr1 truncated at residue 382 (constitutively active variant) (from UniProt P49407 1-382) (domain or fragment)” the Kd [1] was 5.11 µM, the Kd [2] was 3.77 µM and the Kd [3] was 0.035 µM.
